Tests used:
[1] = molecular target: T1, purified recombinant mouse ectoLRP4 His-tag (R&D Systems) (mouse, UniProt Q8VI56 21-1725); test: SPR; same ColQ-Flag surface; single-cycle kinetics with purified ectoLRP4-His at 296, 444, 666, 1000 and 1500 nM, 5 μl/min, 3 min association, 5 min dissociation, no regeneration; HBS-EP; 1:1 binding model with drifting baseline; n = 2; conditions: one partner purified
T1 construct: low-density lipoprotein receptor-related protein 4, mouse, ectodomain; also called purified ectoLRP4; source: bought: R&D Systems

[2] = molecular target: the molecule itself; test: co-sedimentation; extracts (0.8 M NaCl, 1% CHAPS) of HEK 293T cells cotransfected with ColQ-Flag and AChE, run on 5 to 20% sucrose gradients with 0.8 M NaCl, 10 mM EDTA, 0.2% Brij-97; fractions assayed for AChE activity; profile not shown

T1 sequence (Q8VI56 21-1725): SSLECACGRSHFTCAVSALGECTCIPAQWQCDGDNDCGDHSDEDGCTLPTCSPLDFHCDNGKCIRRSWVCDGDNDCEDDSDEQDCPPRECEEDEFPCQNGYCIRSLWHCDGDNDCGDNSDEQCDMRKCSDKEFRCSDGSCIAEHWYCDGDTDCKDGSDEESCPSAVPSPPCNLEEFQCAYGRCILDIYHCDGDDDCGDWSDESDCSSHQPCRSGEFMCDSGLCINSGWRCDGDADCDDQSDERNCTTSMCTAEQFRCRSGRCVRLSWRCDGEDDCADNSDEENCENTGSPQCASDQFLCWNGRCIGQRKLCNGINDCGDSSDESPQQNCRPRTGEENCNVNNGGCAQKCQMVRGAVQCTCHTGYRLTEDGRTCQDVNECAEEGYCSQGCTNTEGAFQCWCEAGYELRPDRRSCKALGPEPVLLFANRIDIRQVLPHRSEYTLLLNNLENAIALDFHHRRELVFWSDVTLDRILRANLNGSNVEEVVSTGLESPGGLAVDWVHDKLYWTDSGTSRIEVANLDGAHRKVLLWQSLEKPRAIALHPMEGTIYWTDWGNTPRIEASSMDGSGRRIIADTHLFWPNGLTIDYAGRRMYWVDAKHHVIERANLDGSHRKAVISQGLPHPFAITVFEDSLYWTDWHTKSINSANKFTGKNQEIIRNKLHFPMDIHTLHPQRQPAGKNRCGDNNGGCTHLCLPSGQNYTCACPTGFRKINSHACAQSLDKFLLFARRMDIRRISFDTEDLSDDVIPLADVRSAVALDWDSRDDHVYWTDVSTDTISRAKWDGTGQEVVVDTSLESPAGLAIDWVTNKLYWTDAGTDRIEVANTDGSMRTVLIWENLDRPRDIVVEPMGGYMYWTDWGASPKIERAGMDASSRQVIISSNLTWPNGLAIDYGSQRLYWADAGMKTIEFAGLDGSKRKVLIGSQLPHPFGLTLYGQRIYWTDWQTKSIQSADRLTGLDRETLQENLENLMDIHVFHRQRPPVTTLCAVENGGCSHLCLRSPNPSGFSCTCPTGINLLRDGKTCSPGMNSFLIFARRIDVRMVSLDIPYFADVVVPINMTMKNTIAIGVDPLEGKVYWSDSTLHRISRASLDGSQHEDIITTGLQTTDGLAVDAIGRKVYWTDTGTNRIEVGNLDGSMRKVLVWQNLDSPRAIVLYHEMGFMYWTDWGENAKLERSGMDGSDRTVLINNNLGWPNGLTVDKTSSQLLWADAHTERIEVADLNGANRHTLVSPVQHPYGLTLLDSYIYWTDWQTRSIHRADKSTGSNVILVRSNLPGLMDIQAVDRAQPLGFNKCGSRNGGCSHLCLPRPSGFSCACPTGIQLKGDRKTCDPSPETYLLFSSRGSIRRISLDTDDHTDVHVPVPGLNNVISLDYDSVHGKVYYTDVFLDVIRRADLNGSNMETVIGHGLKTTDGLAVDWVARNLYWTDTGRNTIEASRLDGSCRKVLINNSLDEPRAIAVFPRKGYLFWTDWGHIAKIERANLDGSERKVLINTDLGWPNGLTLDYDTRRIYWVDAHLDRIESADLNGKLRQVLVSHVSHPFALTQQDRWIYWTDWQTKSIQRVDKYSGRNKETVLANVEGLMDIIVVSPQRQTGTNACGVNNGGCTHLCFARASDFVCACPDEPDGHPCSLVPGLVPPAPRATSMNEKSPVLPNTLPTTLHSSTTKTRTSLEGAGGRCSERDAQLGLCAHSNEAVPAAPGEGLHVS

- Kd [1]: 0.094 µM
- koff [1]: 0.0091 s⁻¹
- kon [1]: 96400 M⁻¹ s⁻¹
B1: ColQ-Flag (rat collagen Q, ColQ1a, with a Flag epitope after amino acid 26) (natural protein, UniProt O35167 23-458, looked up)
chain: QPTFINSVLPISAALPGLDQKKRGNHKACCLLMPPPPPLFPPPFFRGSRSPLLSPDMKNLLELEASPSPCMQGSLGSPGPPGPQGPPGLPGKAGPKGEKGDLGRPGRKGRPGPPGVPGEPGPVGWPGPEGPRGEKGDVGMMGLPGSRGPMGSKGFPGSRGEKGSRGERGDLGPKGEKGFPGFPGMLGQKGEMGPKGESGIAGHRGPTGRPGKRGKQGQKGDSGIMGPPGKPGPSGQPGRQGPPGPPGPPSAGQLVMGLKGERGFPGPPGRCLCGPPANVNNPSYGDPMYGRGSPRVPAIFVVNNQEELEKLNTQNAIAFRRDQRSLYFKDSLGWLPIQLTPFYPVGLHHKAAWHLCGDGVLQPGEECDDGNPDVSDGCIDCHRAYCGDGYRHRGVEDCDGSDFGYLKCETYLPGSYGELRCTQYCSIDSTPCRYFT
notes: Never purified on its own, only immunocaptured from lysates; source: captured from the lysate on anti-Flag beads, wells or sensor chip; not shown: Flag, internal (after residue 26), kept
- stoichiometry N [2]: 3

From PMC10382678, “The collagen ColQ binds to LRP4 and regulates the activation of the Muscle-Specific Kinase–LRP4 receptor complex by agrin at the neuromuscular junction” (The Journal of Biological Chemistry, 2023)
